Measured values reported in patent US20260055143A1, “HIGH AFFINITY VARIANTS OF SH2 DOMAINS” (Axoiya Inc., priority 2023, published 2026).
Values belong to the molecule of their own block, whether it stands above or below them.

Assays:
[1] = target: Ezrin peptide (PPV{pTyr}EPVS (SEQ ID NO: 257)) (Homo sapiens, UniProt P15311); assay: Competitive phage ELISA, Fes variants; type: binding; conditions: IC50-based, fold over Fes wt
Method: (§1) Competitive and non-competitive phage ELISAs were performed as previously described with minor modifications to the protocol. Peptide sequences used for these analyses can be found in Table 4.
(§2) Streptavidin (50 ng/well in TBS (50 mM Tris-HCl pH 8.0, 150 mM NaCl) was coated onto MAXISORP plates (Thermo Scientific). Phage binding was detected using HRP conjugated anti-M13 secondary antibody (1/2000 dilution, GE Healthcare) in TBS buffer containing 0.05% Tween-20 (TBT buffer). Phage binding was detected using the 3,3′,5,5′-tetramethylbenzidine (TMB) (Thermo Fisher Scientific) chromogenic substrate. Plates were read using a PowerWave XS microplate reader (BioTek).
(§3) Competitive phage-ELISAs were used to determine binding affinity of SH2 superbinders for their cognate target. ELISAs were performed as previously described, biotinylated and phosphorylated peptides were immobilized on plates at the concentration of 0.2 μM, and available binding sites on streptavidin were blocked by adding 25 μl/well of 50 μM D-biotin in TBS. […] Data were plotted using Prism 6 software (GraphPad Software Inc) and affinity of SH2 domains was inferred from determination of the half maximal inhibition concentration (IC50).

cancer cell signaling = conditions: expression of the autonomous domain; cited from earlier work
[2] = test system: pMT peptide (EEPQ{pTyr}EEIPIY (SEQ ID NO: 181)); assay: Competitive phage ELISA, Src variants; type: binding; conditions: IC50-based, fold over Src wt
Method: as §1, §2, §3

QGVI{pTyr}SDLNLP = QGVI{pTyr}SDLNLP (Homo sapiens, UniProt P26715); assay: Competitive ELISA, Ptn6_C variants; type: binding
Method: as §1, §2, §3
Peptides listed in Table 5 were used to assay for binding affinity of each corresponding SH2 domain.

[3] = target: T1, ezrin phosphopeptide (PPV{pTyr}EPV (SEQ ID NO: 258)) (Homo sapiens, UniProt P15311); assay: Fluorescence polarization binding assay of purified Fes-SH2 variants with peptide pEZ
T1 construct: made in house; host or cells: peptide: chemical (Fmoc) synthesis; SH2 domains: Escherichia coli BL21(DE3)
From the text: Peptide were synthesized using 9-fluorenylmethoxycarbonyl chemistry with the Prelude peptide synthesizer (Gyros Protein Technologies, Inc., Tucson, AZ) on Rink amide MBHA resin (Novabiochem, London, GB). Each peptide N-terminus was functionalized with biotin through a linker composed of two F-aminocaproic acids (Bachem). N-hydroxysuccinimide-fluorescein was used for N-terminal fluorescein labeling of the synthesized Ezrin pTyr-peptide used in fluorescence polarization tests. All peptides were purified using C-18 reverse phase HPLC (Waters) and their identity was confirmed by mass spectrometry on an Orbitrap Elite (ThermoFisher). Phosphopeptides that were used in the study but not synthesized in house were from GenScript.
Fluorescence polarization assays were performed as previously described. Briefly, binding measurements were performed in FP buffer (25 mM HEPES pH 7.5, 100 mM NaCl, 1 mM DTT, 0.01 mg/ml BSA, 0.03% BRIJ-35) by mixing in a 96-well plate 25 nM FITC-labeled Ezrin pTyr-peptide with serial dilutions of Fes-SH2 variants ranging from 1 mM to 22 nM. Samples were equilibrated at room temperature for 30 minutes before reading plates on an HTS Multi-Mode Microplate Reader (Synergy Neo) using an excitation filter of 485 nm and an emission filter of 530 nm. Dissociation constants were determined with Prism (GraphPad Software Inc) using a one-site total binding model.

enhancement of affinity of the domain (times) [1]: 650
B1: Fes^sSrc: SEQ ID 145: Fes SH2 domain with sSrc graft (protein)
chain: MKIEEHHHHHHSSGKLGLNDIFEAQKIEWHESSGEDLYFQSGTTMDDYKDDDDKGGSEVQKPLHEQLWYHGAIPRAEVAELLVHSGDFLVRESETVKGAYALSVLWDGLPRHFLIQSLDNLYRLEGEGFPSIPLLIDHLLSTQQPLTKKSGVVLHRAVPSR

B2: SuperSrc-SH2: SEQ ID 136: high affinity variant of the Src SH2 domain, BC loop SETVKGA (protein)
chain: MKIEEHHHHHHSSGKLGLNDIFEAQKIEWHESSGEDLYFQSGTTMDDYKDDDDKGGSDSIQAEEWYFGKITRRESERLLLNAENPRGTFLVRESETVKGAYALSVSDFDNAKGLNVKHYLIRKLDSGGFYITSRTQFNSLQQLVAYYSKHADGLCHRLTTVCPSR
effect on cancer cell signaling (cancer cell signaling): dominant negative effect

B3: Src^sFes: SEQ ID 167: Src SH2 domain with sFes graft (protein)
chain: MKIEEHHHHHHSSGKLGLNDIFEAQKIEWHESSGEDLYFQSGTTMDDYKDDDDKGGSDGIQAEEWYFGKITRRESERLLLNAENPRGTFLVREGQSQPDYVLSVSDFDNAKGLNVKHYIIRKLDSGGFYITSRTQFNSLQQLVAYYSKHADGLCHRLTTVCPSR
enhancement of affinity of the domain (times) [2]: 125

change in affinity (QGVI{pTyr}SDLNLP; with either the sSrc or sFes graft): no improvement in affinity | change in binding (QGVI{pTyr}SDLNLP; αA-2-Arg mutation alone): not sufficient to enhance the binding
B4: Ptn6_C^wt: wild-type PTN6_C SH2 domain, SEQ ID 59 (protein, listed as Homo sapiens)
chain: WYHGHMSGGQAETLLQAKGEPWTFLVRESLSQPGDFVLSVLSDQPKAGPGSPLRVTHIKVMCEGGRYTVGGLETFDSLTDLVEHFKKTGIEEASGAFVYLRQPY

IC50 ([3]; fluorescence polarization against the ezrin phosphopeptide): 1300 nM | Fold Change ([3]; fold enhancement in apparent affinity over wt Fes SH2): 1
B5: wt: unmodified Fes SH2 domain, SEQ ID 21 (protein, listed as Homo sapiens)
chain: WYHGAIPRAEVAELLVHSGDFLVRESQGKQEYVLSVLWDGLPRHFIIQSLDNLYRLEGEGFPSIPLLIDHLLSTQQPLTKKSGVVLHRAV
